Reference: patent US20260152562A1

What was measured:
Assay in all cases: cell-based or functional assay
[1] = target: Anti-EGFR Activatable Antibody c225v5-3954-4015LL
[2] = target: Anti-EGFR Activatable Antibody c225v5-3954-5006; for Cleavability (%) MMP14: test concentration or dose not given here; for Cleavability (%) Neutrophil Elastase: test concentration or dose not given here
[3] = target: Anti-EGFR Activatable Antibody c225v5-3954-5010
[4] = target: Anti-EGFR Activatable Antibody C225v5-3954-4008 (linker form not stated)
[5] = target: Anti-EGFR Activatable Antibody c225v5-3954-5005
[6] = target: Anti-EGFR Activatable Antibody c225v5-3954-4006LL; for MMP14 Cleavability (%): test concentration or dose not given here
[7] = target: Anti-EGFR Activatable Antibody c225v5-3954-5012
[8] = target: Anti-EGFR Activatable Antibody c225v5-3954-5008; for Cleavability (%) Matriptase: test concentration or dose not given here; for Cleavability (%) Neutrophil Elastase: test concentration or dose not given here
[9] = target: Anti-EGFR Activatable Antibody c225v5-3954-4003SL
[10] = target: Anti-EGFR Activatable Antibody c225v5-3954-5007; for Cleavability (%) Matriptase: test concentration or dose not given here; for Cleavability (%) Neutrophil Elastase: test concentration or dose not given here
[11] = target: Anti-EGFR Activatable Antibody c225v5-3954-5003; for Cleavability (%) MMP14: test concentration or dose not given here
[12] = target: Anti-EGFR Activatable Antibody c225v5-3954-4001SL
[13] = target: Anti-EGFR Activatable Antibody c225v5-3954-2001
[14] = target: Anti-EGFR Activatable Antibody c225v5-3954-5009
[15] = target: Anti-EGFR Activatable Antibody c225v5-3954-4007SL
[16] = target: Anti-EGFR Activatable Antibody c225v5-3954-4014SL; for MMP14 Cleavability (%): test concentration or dose not given here
[17] = target: Anti-EGFR Activatable Antibody c225v5-3954-5011
[18] = target: Anti-EGFR Activatable Antibody c225v5-3954-4008LL
[19] = target: Anti-EGFR Activatable Antibody c225v5-3954-4004LL
[20] = target: Anti-EGFR Activatable Antibody c225v5-3954-4001LL; for MMP14 Cleavability (%): test concentration or dose not given here
[21] = target: Anti-EGFR Activatable Antibody c225v5-3954-5004
[22] = target: Anti-EGFR Activatable Antibody c225v5-3954-4002SL
[23] = target: Anti-EGFR Activatable Antibody c225v5-3954-5013; for Cleavability (%) Matriptase: test concentration or dose not given here
[24] = target: Anti-EGFR Activatable Antibody c225v5-3954-3001
[25] = target: Anti-EGFR Activatable Antibody with substrate 4001 (linker form not stated); for Cleavability (%) MMP14: test concentration or dose not given here
[26] = target: Anti-EGFR Activatable Antibody c225v5-3954-4010SL
[27] = target: Anti-EGFR Activatable Antibody c225v5-3954-4011SL
[28] = target: Anti-EGFR Activatable Antibody c225v5-3954-4006SL
[29] = target: Anti-EGFR Activatable Antibody c225v5-3954-5001; for Cleavability (%) MMP14: test concentration or dose not given here; for Cleavability (%) Matriptase: test concentration or dose not given here
[30] = target: Anti-EGFR Activatable Antibody c225v5-3954-4012SL
[31] = target: Anti-EGFR Activatable Antibody c225v5-3954-4005SL; for MMP14 Cleavability (%): test concentration or dose not given here
[32] = target: Anti-EGFR Activatable Antibody c225v5-3954-5002; for Cleavability (%) Neutrophil Elastase: test concentration or dose not given here
[33] = target: Anti-EGFR Activatable Antibody c225v5-3954-4009SL

recombinant neutrophil elastase, sequence (P08246 30-267 limits assumed): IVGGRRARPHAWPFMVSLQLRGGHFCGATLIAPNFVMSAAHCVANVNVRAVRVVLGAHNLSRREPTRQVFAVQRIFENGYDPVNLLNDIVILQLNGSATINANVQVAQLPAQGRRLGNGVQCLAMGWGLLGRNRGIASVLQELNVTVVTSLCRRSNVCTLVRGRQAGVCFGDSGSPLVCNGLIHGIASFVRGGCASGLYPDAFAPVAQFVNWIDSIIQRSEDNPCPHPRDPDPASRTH
recombinant matriptase, sequence (Q9Y5Y6 615-855 limits assumed): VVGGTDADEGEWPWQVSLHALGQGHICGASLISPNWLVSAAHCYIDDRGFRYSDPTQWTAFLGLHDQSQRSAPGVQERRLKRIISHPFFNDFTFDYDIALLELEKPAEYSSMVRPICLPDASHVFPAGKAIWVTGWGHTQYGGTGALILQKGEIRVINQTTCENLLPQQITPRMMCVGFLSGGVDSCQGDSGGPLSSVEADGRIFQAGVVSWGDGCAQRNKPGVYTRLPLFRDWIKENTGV
recombinant MMP2, sequence (P08253 110-660 limits assumed): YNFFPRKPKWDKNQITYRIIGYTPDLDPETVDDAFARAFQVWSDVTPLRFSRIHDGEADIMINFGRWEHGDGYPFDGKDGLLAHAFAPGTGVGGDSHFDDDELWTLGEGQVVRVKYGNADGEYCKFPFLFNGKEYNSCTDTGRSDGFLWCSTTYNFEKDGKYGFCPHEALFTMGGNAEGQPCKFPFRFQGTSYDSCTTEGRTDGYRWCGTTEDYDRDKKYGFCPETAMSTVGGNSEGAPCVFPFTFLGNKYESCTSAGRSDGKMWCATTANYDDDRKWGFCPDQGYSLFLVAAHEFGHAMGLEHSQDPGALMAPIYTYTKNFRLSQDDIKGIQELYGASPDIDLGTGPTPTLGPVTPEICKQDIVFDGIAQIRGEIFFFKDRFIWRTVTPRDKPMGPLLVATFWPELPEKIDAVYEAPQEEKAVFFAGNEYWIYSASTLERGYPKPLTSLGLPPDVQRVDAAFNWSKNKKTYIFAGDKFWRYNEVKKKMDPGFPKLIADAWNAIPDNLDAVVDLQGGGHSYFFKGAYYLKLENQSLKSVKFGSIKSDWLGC

Substance: recombinant MMP14 (from UniProt P50281 112-538) (enzyme)
- MMP14 Cleavability (%) [1]: 0%
- Cleavability (%) MMP14 [2]: 6%
- Kcat/Km (M^-1 s^-1) MMP14 [2]: 564 M⁻¹ s⁻¹
- Cleavability (%) MMP14 [3]: 11%
- Cleavability (%) MMP14 [4]: 6%
- Kcat/Km (M^-1 s^-1) MMP14 [4]: 230 M⁻¹ s⁻¹
- Cleavability (%) MMP14 [5]: 34%
- MMP14 Cleavability (%) [6]: 84.2%
- Cleavability (%) MMP14 [7]: 72%
- Cleavability (%) MMP14 [8]: 55%
- MMP14 Cleavability (%) [9]: 53.1%
- Cleavability (%) MMP14 [10]: 90%
- Kcat/Km (M^-1 s^-1) MMP14 [10]: 9250 M⁻¹ s⁻¹
- Cleavability (%) MMP14 [11]: 20%
- MMP14 Cleavability (%) [12]: 96.5%
- Cleavability (%) MMP14 [13]: 58%
- Kcat/Km (M^-1 s^-1) MMP14 [13]: 6330 M⁻¹ s⁻¹
- Cleavability (%) MMP14 [14]: 9%
- MMP14 Cleavability (%) [15]: 0%
- MMP14 Cleavability (%) [16]: 30.5%
- Cleavability (%) MMP14 [17]: 7%
- Kcat/Km (M^-1 s^-1) MMP14 [17]: 444 M⁻¹ s⁻¹
- MMP14 Cleavability (%) [18]: 0%
- MMP14 Cleavability (%) [19]: 46.2%
- MMP14 Cleavability (%) [20]: 100%
- Cleavability (%) MMP14 [21]: 19%
- MMP14 Cleavability (%) [22]: 85.9%
- Cleavability (%) MMP14 [23]: 78%
- Kcat/Km (M^-1 s^-1) MMP14 [23]: 7770 M⁻¹ s⁻¹
- Kcat/Km (M^-1 s^-1) MMP14 [24]: 17000 M⁻¹ s⁻¹
- Cleavability (%) MMP14 [25]: 77%
- Kcat/Km (M^-1 s^-1) MMP14 [25]: 6010 M⁻¹ s⁻¹
- MMP14 Cleavability (%) [26]: 0%
- MMP14 Cleavability (%) [27]: 9.9%
- MMP14 Cleavability (%) [28]: 85.7%
- Cleavability (%) MMP14 [29]: 76%
- MMP14 Cleavability (%) [30]: 0%
- MMP14 Cleavability (%) [31]: 24.4%
- Cleavability (%) MMP14 [32]: 58%
- MMP14 Cleavability (%) [33]: 0%

Substance: recombinant MMP2 (from UniProt P08253 110-660) (enzyme)
- Kcat/Km (M^-1 s^-1) MMP2 [2]: 36900 M⁻¹ s⁻¹
- Kcat/Km (M^-1 s^-1) MMP2 [4]: 13000 M⁻¹ s⁻¹
- Kcat/Km (M^-1 s^-1) MMP2 [10]: 98300 M⁻¹ s⁻¹
- Kcat/Km (M^-1 s^-1) MMP2 [13]: 13200 M⁻¹ s⁻¹
- Kcat/Km (M^-1 s^-1) MMP2 [17]: 3380 M⁻¹ s⁻¹
- Kcat/Km (M^-1 s^-1) MMP2 [23]: 76500 M⁻¹ s⁻¹
- Kcat/Km (M^-1 s^-1) MMP2 [24]: 310000 M⁻¹ s⁻¹
- Kcat/Km (M^-1 s^-1) MMP2 [25]: 57600 M⁻¹ s⁻¹

Substance: recombinant matriptase (from UniProt Q9Y5Y6 615-855) (enzyme)
- Cleavability (%) Matriptase [2]: 100%
- Kcat/Km (M^-1 s^-1) Matriptase [2]: 5370 M⁻¹ s⁻¹
- Cleavability (%) Matriptase [3]: 0%
- Cleavability (%) Matriptase [4]: 40%
- Kcat/Km (M^-1 s^-1) Matriptase [4]: 476 M⁻¹ s⁻¹
- Cleavability (%) Matriptase [5]: 6%
- Cleavability (%) Matriptase [7]: 0%
- Cleavability (%) Matriptase [8]: 98%
- Cleavability (%) Matriptase [10]: 100%
- Kcat/Km (M^-1 s^-1) Matriptase [10]: 27200 M⁻¹ s⁻¹
- Cleavability (%) Matriptase [11]: 99%
- Cleavability (%) Matriptase [13]: 53%
- Kcat/Km (M^-1 s^-1) Matriptase [13]: 2550 M⁻¹ s⁻¹
- Cleavability (%) Matriptase [14]: 100%
- Cleavability (%) Matriptase [17]: 80%
- Kcat/Km (M^-1 s^-1) Matriptase [17]: 1430 M⁻¹ s⁻¹
- Cleavability (%) Matriptase [21]: 75%
- Cleavability (%) Matriptase [23]: 0%
- Kcat/Km (M^-1 s^-1) Matriptase [23]: 0 M⁻¹ s⁻¹
- Kcat/Km (M^-1 s^-1) Matriptase [24]: 5350 M⁻¹ s⁻¹
- Cleavability (%) Matriptase [25]: 0%
- Kcat/Km (M^-1 s^-1) Matriptase [25]: 0 M⁻¹ s⁻¹
- Cleavability (%) Matriptase [29]: 100%
- Cleavability (%) Matriptase [32]: 100%

Substance: recombinant neutrophil elastase (from UniProt P08246 30-267) (enzyme)
- Cleavability (%) Neutrophil Elastase [2]: 30%
- Cleavability (%) Neutrophil Elastase [3]: 100%
- Cleavability (%) Neutrophil Elastase [4]: 28%
- Cleavability (%) Neutrophil Elastase [5]: 81%
- Cleavability (%) Neutrophil Elastase [7]: 55%
- Cleavability (%) Neutrophil Elastase [8]: 66%
- Cleavability (%) Neutrophil Elastase [10]: 74%
- Kcat/Km (M^-1 s^-1) Neutrophil Elastase [10]: 24200 M⁻¹ s⁻¹
- Cleavability (%) Neutrophil Elastase [11]: 77%
- Cleavability (%) Neutrophil Elastase [13]: 18%
- Kcat/Km (M^-1 s^-1) Neutrophil Elastase [13]: 3170 M⁻¹ s⁻¹
- Cleavability (%) Neutrophil Elastase [14]: 31%
- Cleavability (%) Neutrophil Elastase [17]: 100%
- Kcat/Km (M^-1 s^-1) Neutrophil Elastase [17]: 665000 M⁻¹ s⁻¹
- Cleavability (%) Neutrophil Elastase [21]: 84%
- Cleavability (%) Neutrophil Elastase [23]: 56%
- Cleavability (%) Neutrophil Elastase [24]: 52%
- Kcat/Km (M^-1 s^-1) Neutrophil Elastase [24]: 19100 M⁻¹ s⁻¹
- Cleavability (%) Neutrophil Elastase [25]: 37%
- Cleavability (%) Neutrophil Elastase [29]: 88%
- Cleavability (%) Neutrophil Elastase [32]: 67%

Substance: recombinant MMP9 (from UniProt P14780 107-707) (enzyme)
- MMP9 Cleavability (%) [1]: 90%
- Cleavability (%) MMP9 [2]: 81%
- Kcat/Km (M^-1 s^-1) MMP9 [2]: 33900 M⁻¹ s⁻¹
- Cleavability (%) MMP9 [3]: 0%
- Cleavability (%) MMP9 [4]: 100%
- Kcat/Km (M^-1 s^-1) MMP9 [4]: 18700 M⁻¹ s⁻¹
- Cleavability (%) MMP9 [5]: 72%
- MMP9 Cleavability (%) [6]: 90.8%
- Cleavability (%) MMP9 [7]: 52%
- Cleavability (%) MMP9 [8]: 100%
- MMP9 Cleavability (%) [9]: 6%
- Cleavability (%) MMP9 [10]: 77%
- Kcat/Km (M^-1 s^-1) MMP9 [10]: 25300 M⁻¹ s⁻¹
- Cleavability (%) MMP9 [11]: 100%
- MMP9 Cleavability (%) [12]: 94.5%
- Cleavability (%) MMP9 [13]: 22%
- Kcat/Km (M^-1 s^-1) MMP9 [13]: 394 M⁻¹ s⁻¹
- Cleavability (%) MMP9 [14]: 78%
- MMP9 Cleavability (%) [15]: 69.5%
- MMP9 Cleavability (%) [16]: 0%
- Cleavability (%) MMP9 [17]: 55%
- Kcat/Km (M^-1 s^-1) MMP9 [17]: 4180 M⁻¹ s⁻¹
- MMP9 Cleavability (%) [18]: 55.2%
- MMP9 Cleavability (%) [19]: 29.8%
- MMP9 Cleavability (%) [20]: 100%
- Cleavability (%) MMP9 [21]: 86%
- MMP9 Cleavability (%) [22]: 87.5%
- Cleavability (%) MMP9 [23]: 62%
- Kcat/Km (M^-1 s^-1) MMP9 [23]: 10400 M⁻¹ s⁻¹
- Kcat/Km (M^-1 s^-1) MMP9 [24]: 50500 M⁻¹ s⁻¹
- Cleavability (%) MMP9 [25]: 100%
- Kcat/Km (M^-1 s^-1) MMP9 [25]: 8840 M⁻¹ s⁻¹
- MMP9 Cleavability (%) [26]: 18%
- MMP9 Cleavability (%) [27]: 78.8%
- MMP9 Cleavability (%) [28]: 92.9%
- Cleavability (%) MMP9 [29]: 76%
- MMP9 Cleavability (%) [30]: 56.5%
- MMP9 Cleavability (%) [31]: 70.5%
- Cleavability (%) MMP9 [32]: 37%
- MMP9 Cleavability (%) [33]: 22.1%

Substance: recombinant legumain (from UniProt Q99538 18-323) (enzyme)
- Cleavability (%) Legumain [2]: 0%
- Cleavability (%) Legumain [3]: 0%
- Cleavability (%) Legumain [4]: 0%
- Cleavability (%) Legumain [5]: 0%
- Cleavability (%) Legumain [7]: 7%
- Cleavability (%) Legumain [8]: 0%
- Cleavability (%) Legumain [10]: 0%
- Cleavability (%) Legumain [11]: 0%
- Cleavability (%) Legumain [13]: 5%
- Cleavability (%) Legumain [14]: 0%
- Cleavability (%) Legumain [17]: 0%
- Cleavability (%) Legumain [21]: 27%
- Cleavability (%) Legumain [23]: 9%
- Cleavability (%) Legumain [24]: 0%
- Cleavability (%) Legumain [25]: 0%
- Cleavability (%) Legumain [29]: 0%
- Cleavability (%) Legumain [32]: 21%
